Measured values as given in patent US20260151519A1 (AKTIS ONCOLOGY, published 2026).
Primed or numbered codes have the meaning given here. Where no end group is shown, it is not given here. [ ]: non-standard residue; d: D form. The star is where a group is joined. Biotin = O=C1N[C@H]2[C@H](CS[C@H]2CCCCC(=O)*)N1; Lys(Me3) = C[N+](C)(C)CCCC[C@H](N)C(=O)O; PEG4′ = not defined here

How the values were obtained:
Test in all cases: cell microarray on HEK293 cells
PLPP3 = molecular target: T1, PLPP3 (human, UniProt O14495 1-311)
T1 construct: whole, on cells
T1 sequence (looked up): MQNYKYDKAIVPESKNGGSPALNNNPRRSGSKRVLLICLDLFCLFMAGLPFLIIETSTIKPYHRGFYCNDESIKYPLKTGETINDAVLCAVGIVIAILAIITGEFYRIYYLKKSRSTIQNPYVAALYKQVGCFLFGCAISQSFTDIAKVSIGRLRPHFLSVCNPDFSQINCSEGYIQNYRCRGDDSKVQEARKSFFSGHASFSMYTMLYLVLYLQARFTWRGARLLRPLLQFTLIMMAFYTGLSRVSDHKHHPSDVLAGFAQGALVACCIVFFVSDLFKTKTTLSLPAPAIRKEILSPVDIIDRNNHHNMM
Description: (§1) Initially, two pools of compounds were tested. […] To perform this assay, HEK293 cells were plated on a dish and localized spots of cells were transiently over-expressed with a single cDNA encoding for GFP and one of the 6,416 targets. Included in this library were multiple clones for the Nectin family members, including plasma membrane, non-tethered secreted, and tethered secreted forms of Nectin-1, 2, 3, and 4. Secreted protein targets were tethered to the plasma membrane to aid in detection. The molecule pools were incubated on the fixed, over-expressing cell microarrays (n=2 per protein), and binding was visualized using Alexa Fluor 647 streptavidin fluorescence.

SLC22A23 = molecular target: T2, SLC22A23 (human, UniProt A1A5C7 1-686)
T2 construct: whole, on cells
T2 sequence (looked up): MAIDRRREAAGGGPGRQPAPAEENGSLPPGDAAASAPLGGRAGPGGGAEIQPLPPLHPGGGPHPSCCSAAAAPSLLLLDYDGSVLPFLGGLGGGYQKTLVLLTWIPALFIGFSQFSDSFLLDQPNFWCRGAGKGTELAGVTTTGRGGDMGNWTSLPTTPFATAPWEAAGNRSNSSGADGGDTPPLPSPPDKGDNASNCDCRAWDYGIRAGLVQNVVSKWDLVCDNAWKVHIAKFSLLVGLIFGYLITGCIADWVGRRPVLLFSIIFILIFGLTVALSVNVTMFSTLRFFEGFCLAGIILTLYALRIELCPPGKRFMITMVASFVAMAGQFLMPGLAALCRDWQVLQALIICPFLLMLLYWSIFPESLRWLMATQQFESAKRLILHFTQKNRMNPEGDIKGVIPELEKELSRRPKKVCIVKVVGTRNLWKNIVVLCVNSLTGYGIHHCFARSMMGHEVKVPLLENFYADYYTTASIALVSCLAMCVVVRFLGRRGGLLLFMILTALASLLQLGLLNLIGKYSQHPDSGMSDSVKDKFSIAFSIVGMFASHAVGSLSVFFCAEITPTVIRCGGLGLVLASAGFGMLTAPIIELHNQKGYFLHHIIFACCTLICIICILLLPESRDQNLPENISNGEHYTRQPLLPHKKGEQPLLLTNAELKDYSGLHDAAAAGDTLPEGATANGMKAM
Description: as §1

SPNS2 = molecular target: T3, SPNS2 (human, UniProt Q8IVW8 1-549)
T3 construct: whole, on cells
T3 sequence (looked up): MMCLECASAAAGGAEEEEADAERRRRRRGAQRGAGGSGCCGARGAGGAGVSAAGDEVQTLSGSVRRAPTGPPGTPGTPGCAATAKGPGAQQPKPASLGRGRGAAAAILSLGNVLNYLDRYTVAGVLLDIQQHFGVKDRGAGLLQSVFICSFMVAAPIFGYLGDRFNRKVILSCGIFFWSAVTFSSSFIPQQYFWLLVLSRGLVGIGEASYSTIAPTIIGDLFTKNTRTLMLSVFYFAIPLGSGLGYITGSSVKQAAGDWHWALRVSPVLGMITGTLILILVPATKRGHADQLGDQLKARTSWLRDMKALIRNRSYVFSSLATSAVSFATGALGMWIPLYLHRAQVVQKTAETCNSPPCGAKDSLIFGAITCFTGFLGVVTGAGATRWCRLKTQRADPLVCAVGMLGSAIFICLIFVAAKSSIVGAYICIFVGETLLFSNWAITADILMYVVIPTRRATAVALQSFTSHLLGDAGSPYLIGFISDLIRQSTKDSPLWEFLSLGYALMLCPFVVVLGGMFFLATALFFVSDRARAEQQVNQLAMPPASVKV
Description: as §1

IGFBP4 = molecular target: T4, IGFBP4 (human, UniProt P22692 22-258)
T4 construct: whole, on cells; Secreted targets were tethered to the plasma membrane
T4 sequence (looked up): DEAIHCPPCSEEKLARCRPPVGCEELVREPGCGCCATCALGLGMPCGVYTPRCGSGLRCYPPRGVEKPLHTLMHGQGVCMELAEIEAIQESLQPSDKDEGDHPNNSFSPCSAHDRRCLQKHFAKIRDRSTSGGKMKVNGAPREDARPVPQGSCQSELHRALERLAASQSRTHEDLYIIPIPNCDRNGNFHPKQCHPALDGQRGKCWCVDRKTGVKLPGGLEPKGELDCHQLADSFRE
Description: as §1

IGFBP3 = molecular target: T5, IGFBP3 (human, UniProt P17936 28-291)
T5 construct: whole, on cells; Secreted targets were tethered to the plasma membrane
T5 sequence (P17936 28-291): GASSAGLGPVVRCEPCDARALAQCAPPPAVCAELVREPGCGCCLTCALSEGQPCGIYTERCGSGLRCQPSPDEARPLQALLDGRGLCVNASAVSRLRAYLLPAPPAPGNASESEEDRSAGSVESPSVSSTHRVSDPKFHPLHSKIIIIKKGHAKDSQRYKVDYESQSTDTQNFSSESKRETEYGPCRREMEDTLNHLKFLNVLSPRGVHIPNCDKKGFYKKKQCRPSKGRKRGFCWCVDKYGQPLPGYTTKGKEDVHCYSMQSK
Description: as §1

IGF2 = molecular target: T6, IGF2 (human, UniProt P01344 25-91)
T6 construct: whole, on cells; Secreted targets were tethered to the plasma membrane
T6 sequence (P01344 25-91): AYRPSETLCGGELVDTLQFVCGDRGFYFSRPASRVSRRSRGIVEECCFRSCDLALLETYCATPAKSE
Description: as §1

IGF1 = molecular target: T7, IGF1 (human, UniProt P05019 49-118)
T7 construct: whole, on cells; Secreted targets were tethered to the plasma membrane
T7 sequence (P05019 49-118): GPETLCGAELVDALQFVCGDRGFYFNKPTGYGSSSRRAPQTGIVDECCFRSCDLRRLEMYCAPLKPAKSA
Description: as §1

MFSD2B = molecular target: T8, MFSD2B (human, UniProt A6NFX1 1-504)
T8 construct: whole, on cells
T8 sequence (looked up): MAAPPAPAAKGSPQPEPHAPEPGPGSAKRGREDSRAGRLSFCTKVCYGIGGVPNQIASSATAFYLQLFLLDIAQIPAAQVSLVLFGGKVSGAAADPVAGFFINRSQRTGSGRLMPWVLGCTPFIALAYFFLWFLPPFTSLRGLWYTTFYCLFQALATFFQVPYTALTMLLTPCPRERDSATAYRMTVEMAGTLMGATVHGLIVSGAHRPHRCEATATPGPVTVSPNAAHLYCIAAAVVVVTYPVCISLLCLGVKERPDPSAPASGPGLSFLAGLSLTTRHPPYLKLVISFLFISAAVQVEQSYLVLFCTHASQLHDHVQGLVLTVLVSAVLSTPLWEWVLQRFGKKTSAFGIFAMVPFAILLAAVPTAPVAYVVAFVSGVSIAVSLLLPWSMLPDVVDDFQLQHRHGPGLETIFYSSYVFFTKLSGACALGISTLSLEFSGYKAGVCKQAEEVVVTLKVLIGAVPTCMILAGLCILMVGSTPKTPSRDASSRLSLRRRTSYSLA
Description: as §1

EGF = molecular target: T9, EGF (human, UniProt P01133 23-1207)
T9 construct: whole, on cells
T9 sequence (P01133 23-1207): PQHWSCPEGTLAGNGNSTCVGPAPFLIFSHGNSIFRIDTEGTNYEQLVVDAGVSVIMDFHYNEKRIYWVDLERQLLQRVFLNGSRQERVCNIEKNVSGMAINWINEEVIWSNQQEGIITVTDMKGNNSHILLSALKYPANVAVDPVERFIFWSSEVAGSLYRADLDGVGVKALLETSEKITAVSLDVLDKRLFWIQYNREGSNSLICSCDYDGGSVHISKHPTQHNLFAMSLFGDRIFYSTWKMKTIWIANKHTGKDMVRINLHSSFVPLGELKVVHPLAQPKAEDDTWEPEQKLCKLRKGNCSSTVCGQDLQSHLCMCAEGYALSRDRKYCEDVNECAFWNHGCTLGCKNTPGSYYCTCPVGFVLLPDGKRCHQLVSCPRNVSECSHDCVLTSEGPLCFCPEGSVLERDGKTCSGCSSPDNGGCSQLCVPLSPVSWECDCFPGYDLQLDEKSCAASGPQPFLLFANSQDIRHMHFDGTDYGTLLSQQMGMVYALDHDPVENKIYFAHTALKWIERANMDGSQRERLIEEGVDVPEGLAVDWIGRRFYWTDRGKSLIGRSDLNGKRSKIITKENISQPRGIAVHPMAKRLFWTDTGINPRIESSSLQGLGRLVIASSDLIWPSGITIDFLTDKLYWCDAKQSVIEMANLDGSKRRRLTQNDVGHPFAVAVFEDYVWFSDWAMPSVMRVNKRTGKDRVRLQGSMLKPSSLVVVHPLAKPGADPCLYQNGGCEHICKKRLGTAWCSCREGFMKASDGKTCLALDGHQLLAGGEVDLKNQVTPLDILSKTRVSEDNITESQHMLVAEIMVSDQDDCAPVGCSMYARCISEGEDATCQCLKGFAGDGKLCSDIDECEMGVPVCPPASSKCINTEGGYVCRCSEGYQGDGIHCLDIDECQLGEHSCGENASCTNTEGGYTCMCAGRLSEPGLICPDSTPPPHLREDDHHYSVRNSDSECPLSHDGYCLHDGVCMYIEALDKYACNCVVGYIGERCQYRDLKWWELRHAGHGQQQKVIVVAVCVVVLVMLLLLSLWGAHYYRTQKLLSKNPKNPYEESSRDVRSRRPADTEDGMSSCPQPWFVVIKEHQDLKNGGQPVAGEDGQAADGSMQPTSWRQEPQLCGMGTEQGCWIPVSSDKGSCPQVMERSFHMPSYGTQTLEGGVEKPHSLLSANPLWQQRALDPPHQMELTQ
Description: as §1

TRPV5 = molecular target: T10, TRPV5 (human, UniProt Q9NQA5 1-729)
T10 construct: whole, on cells
T10 sequence (Q9NQA5 whole entry): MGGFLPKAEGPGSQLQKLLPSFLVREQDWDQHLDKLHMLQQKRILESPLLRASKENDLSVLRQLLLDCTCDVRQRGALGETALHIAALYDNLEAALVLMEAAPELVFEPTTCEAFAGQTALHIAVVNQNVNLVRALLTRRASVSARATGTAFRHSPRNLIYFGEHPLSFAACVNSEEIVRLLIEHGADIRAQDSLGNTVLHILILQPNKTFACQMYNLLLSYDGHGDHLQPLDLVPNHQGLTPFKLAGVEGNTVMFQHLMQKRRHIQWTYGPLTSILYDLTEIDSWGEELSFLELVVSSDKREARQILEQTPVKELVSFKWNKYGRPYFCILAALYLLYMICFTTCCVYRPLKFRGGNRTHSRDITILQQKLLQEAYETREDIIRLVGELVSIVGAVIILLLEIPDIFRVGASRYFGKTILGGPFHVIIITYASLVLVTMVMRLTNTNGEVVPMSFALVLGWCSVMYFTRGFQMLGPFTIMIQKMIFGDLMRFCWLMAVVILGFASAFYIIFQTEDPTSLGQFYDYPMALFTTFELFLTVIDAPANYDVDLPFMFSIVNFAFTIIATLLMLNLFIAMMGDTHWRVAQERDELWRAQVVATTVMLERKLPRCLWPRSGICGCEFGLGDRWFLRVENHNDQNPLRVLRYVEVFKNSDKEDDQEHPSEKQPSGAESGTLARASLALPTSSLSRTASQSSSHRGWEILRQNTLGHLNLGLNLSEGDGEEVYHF
Description: as §1

Measured: binding result

{Biotin-PEG4′}-CDYDEQFFTALKRLRGADICEYIQASFQYLPGECIEEILDNLGCS (designed binder, cysteine pairing not given here) [C208]
no binding (tested: 2 µg/mL): all assays above

{Biotin-PEG4′}-CEYDEQFFTALKRLRGDDICDYIQASFQYLPGLCIEEILDNLGCS (designed binder, cysteine pairing not given here) [C197]
no binding (tested: 2 µg/mL): all assays above

{Biotin-PEG4′}-CDYDEQFFTALARLRGADICEYIQASFQYLPGECIEEILDNLGCS (designed binder, cysteine pairing not given here) [C247]
no binding (tested: 2 µg/mL): all assays above

{Biotin-PEG4′}-CDYDEQFFTALKRLRGGDICEYIQASFQYLPGLCIEEILDNLGCS (designed binder, cysteine pairing not given here) [C190]
no binding (tested: 2 µg/mL): all assays above

{Biotin-PEG4′}-CEYDEEFFTALARLRGGDICQYIQA[Lys(Me3)]FQYLPALCIEEILDNLGCS (designed binder, cysteine pairing not given here) [C253]
no binding (tested: 2 µg/mL): all assays above
